A word on the Kd: it is the free concentration of one partner at which half of the binding sites on the other are occupied at equilibrium, for simple one-to-one binding. Low values mean a tighter complex, high ones a looser complex.

For the test, the target named is hexon protein of HAdV-20-42-42 (human adenovirus HAdV-20-42-42 (strain …)). The test is described as follows: SPR; affinity and interaction half-life told as data not shown; CD46 immobilised, hexon as analyte. As to conditions: both partners purified.

B1: CD46 (receptor)
chain: CEEPPTFEAMELIGKPKPYYEIGERVDYKCKKGYFYIPPLATHTICDRNHTWLPVSDDACYRETCPYIRDPLNGQAVPANGTYEFGYQMHFICNEGYYLIGEEILYCELKGSVAIWSGKPPICEKVLCTPPPKIKNGKHTFSEVEVFEYLDAVTYSCDPAPGPDPFSLIGESTIYCGDNSVWSRAAPECKVVKCRFPVVENGKQISGFGKKFYYKATVMFECDKGFYLDGSDTIVCDSNSTWDPPVPKCLKVLPPSSTKPPALSHSVSTSSTTKSPASSASGPRPTYKPPVSNYPGYPKPEEGILDSLD
B1 yielded a Kd of 13.5 µM.

These data come from paper PMC8549523, “Human AdV-20-42-42, a Promising Novel Adenoviral Vector for Gene Therapy and Vaccine Product Development” (Journal of Virology, 2021).
